Target: McpB ligand-binding domain (LBD) of Ralstonia pseudosolanacearum Ps29 (Ralstonia pseudosolanacearum Ps29)
Test: AUC

## McpB ligand-binding domain (LBD) of Ralstonia pseudosolanacearum Ps29 (domain or fragment)
  stoichiometry N: 2

Reference: paper PMC5561266
